Data reported in patent US20060002951A1.

Target: wild-type human APOBEC3G with a fused HA tag at the C-terminus (human) (UniProt Q9HC16)
Experiment: co-immunoprecipitation with anti-HA from 293T cell lysate, Western blot with anti-CA; ratio normalized to hGag

Chain of wild-type human APOBEC3G with a fused HA tag at the C-terminus (human) (Q9HC16 whole entry, the tested form may be a part): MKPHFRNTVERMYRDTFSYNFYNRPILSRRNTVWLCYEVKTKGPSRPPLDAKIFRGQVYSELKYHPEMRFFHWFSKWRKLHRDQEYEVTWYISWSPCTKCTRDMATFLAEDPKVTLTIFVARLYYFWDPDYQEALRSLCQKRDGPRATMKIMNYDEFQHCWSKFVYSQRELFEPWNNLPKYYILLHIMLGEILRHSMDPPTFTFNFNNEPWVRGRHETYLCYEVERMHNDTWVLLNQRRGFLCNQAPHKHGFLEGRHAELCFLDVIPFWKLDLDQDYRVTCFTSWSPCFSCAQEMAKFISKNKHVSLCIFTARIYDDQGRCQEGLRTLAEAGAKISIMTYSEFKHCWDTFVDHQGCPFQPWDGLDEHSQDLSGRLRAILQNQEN

For “hGag deletion mutant Δ378-500 (from UniProt P04585 1-377)”, the reduction in the interaction of Gag with APOBEC3G against hGag was > 95%.
